Experimental data taken from article PMC4813479 (The Journal of Biological Chemistry, 2015).

Molecular target: full-length human αIIbβ3 on CHO K1 cells (human, UniProt P08514 32-1039; P05106 27-788)
Test: cell-based or functional assay

AGDV [AGDV tetrapeptide]
EC50 of LIBS1 epitope exposure on CHO cells expressing αIIbβ3 (flow cytometry, 1 mM Mg2+ and 1 mM Ca2+): 1430 µM
